Measured values: PMC7212649, “An arrestin-1 surface opposite of its interface with photoactivated rhodopsin engages with enolase-1” (The Journal of Biological Chemistry, 2020)
Each block holds one molecule with its values, some of them ahead of it.

B1: arrestin-1 E218C (C63A/C143A), mBBr-labeled (natural protein, bovine)
chain: KANKPAPNHVIFKKISRDKSVTIYLGKRDYIDHVERVEPVDGVVLVDPELVKGKRVYVSLTAAFRYGQEDIDVMGLSFRRDLYFSQVQVFPPVGASGATTRLQESLIKKLGANTYPFLLTFPDYLPCSVMLQPAPQDVGKSAGVDFEIKAFATHSTDVEEDKIPKKSSVRLLIRKVQHAPRDMGPQPRAEASWQFFMSDKPLRLAVSLSKEIYYHGCPIPVTVAVTNSTEKTVKKIKVLVEQVTNVVLYSSDYYIKTVAAEEAQEKVPPNSSLTKTLTLVPLLANNRERRGIALDGKIKHEDTNLASSTIIKEGIDKTVMGILVSYQIKVKLTVSGLLGELTSSEVATEVPFRLMHPQPEDPDTAKESFQDENFVFEEFARQNLKDAGEYKEEKTDQEAAMDE
modifications: monobromobimane (mBBr) on the introduced cysteine 218
notes: arrestin-1, bovine; also called E218C-mBBr; source: Pichia pastoris, purified (nickel-agarose)
B2: enolase-1 (bovine, unlabeled) (enzyme, UniProt Q9XSJ4 1-434, looked up)
chain: MSILKVHAREIFDSRGNPTVEVDLFTAKGLFRAAVPSGASTGIYEALELRDNDKTRYMGKGVSKAVEHINKTIAPALVSKKLNVVEQEKIDKLMIEMDGTENKSKFGANAILGVSLAVCKAGAVEKGVPLYRHIADLAGNAEVILPVPAFNVINGGSHAGNKLAMQEFMILPVGAENFREAMRIGAEVYHNLKNVIKEKYGKDATNVGDEGGFAPNILENKEALELLKNAIGKAGYSDKVVIGMDVAASEFYRSGKYDLDFKSPDDPSRYITPDELANLYKSFIRDYPVVSIEDPFDQDDWEAWQKFTASAGIQVVGDDLTVTNPKRIAKAVSEKSCNCLLLKVNQIGSVTESLQACKLAQSNGWGVMVSHRSGETEDTFIADLVVGLCTGQIKTVAPCRSERLAKYNQILRIEEELGSKAKFAGRSFRNPLAK
notes: enolase-1 (alpha-enolase), bovine; also called Eno1; source: prepared as arrestin-1 (Pichia pastoris, nickel-agarose)

Tests used:
[1] = target: arrestin-1 D362K (bovine) (UniProt P08168); experiment: co-IP; 5 μM arrestin-1 (or mutant) with 5 μM enolase-1–Alexa 546 in LAP200N, 2 h at 4 °C; captured by C10C10 anti-arrestin-1 mAb on Protein G magnetic beads for 16 h, 10 washes, eluted at pH 2.5; fluorescence of captured enolase-1 read
[2] = target: arrestin-1 E361K (bovine) (UniProt P08168); experiment: as above
arrestin-1 R29E (bovine) = arrestin-1 R29E (bovine) (UniProt P08168); experiment: as above
[3] = target: B2; experiment: fluorescence quench protection (KI quenching of mBBr); E218C-mBBr arrestin-1 with enolase-1 in the presence of 5 μM pRho* (sonicated disc membranes, light for 1 min); details: both partners purified
[4] = target: T1, arrestin-1 H10C (C63A/C143A), mBBr-labeled (bovine, UniProt P08168 2-404, C63A | C143A | H10C, monobromobimane (mBBr) on the introduced cysteine 10); experiment: fluorescence quench protection (KI quenching of mBBr); titration of the enolase-1 concentration against H10C-mBBr arrestin-1 to set the conditions; details: both partners purified
T1 construct: arrestin-1, bovine; source: Pichia pastoris, purified (nickel-agarose)

[5] = target: T2, arrestin-1 K28C (C63A/C143A), mBBr-labeled (bovine, UniProt P08168 2-404, C63A | C143A | K28C, monobromobimane (mBBr) on the introduced cysteine 28); experiment: fluorescence quench protection (KI quenching of mBBr); both in solution; 0.25 μM mBBr-labeled arrestin-1, 100 mM potassium iodide, with or without 5 μM enolase-1 (20-fold molar excess); emission at 470 nm; Pf = (F(A+E+K)−F(A+K))/(F(A)−F(A+K)); details: both partners purified
T2 construct: arrestin-1, bovine; source: Pichia pastoris, purified (nickel-agarose)

[6] = target: T3, arrestin-1 R37C (C63A/C143A), mBBr-labeled (bovine, UniProt P08168 2-404, C63A | C143A | R37C, monobromobimane (mBBr) on the introduced cysteine 37); experiment: as above; details: both partners purified
T3 construct: arrestin-1, bovine; source: Pichia pastoris, purified (nickel-agarose)

[7] = target: T4, arrestin-1 E50C (C63A/C143A), mBBr-labeled (bovine, UniProt P08168 2-404, C63A | C143A | E50C, monobromobimane (mBBr) on the introduced cysteine 50); experiment: as above; details: both partners purified
T4 construct: arrestin-1, bovine; source: Pichia pastoris, purified (nickel-agarose)

[8] = target: T5, arrestin-1 K53C (C63A/C143A), mBBr-labeled (bovine, UniProt P08168 2-404, C63A | C143A | K53C, monobromobimane (mBBr) on the introduced cysteine 53); experiment: as above; details: both partners purified
T5 construct: arrestin-1, bovine; source: Pichia pastoris, purified (nickel-agarose)

[9] = target: T6, arrestin-1 D183C (C63A/C143A), mBBr-labeled (bovine, UniProt P08168 2-404, C63A | C143A | D183C, monobromobimane (mBBr) on the introduced cysteine 183); experiment: as above; details: both partners purified
T6 construct: arrestin-1, bovine; source: Pichia pastoris, purified (nickel-agarose)

[10] = target: T7, arrestin-1 R189C (C63A/C143A), mBBr-labeled (bovine, UniProt P08168 2-404, C63A | C143A | R189C, monobromobimane (mBBr) on the introduced cysteine 189); experiment: as above; details: both partners purified
T7 construct: arrestin-1, bovine; source: Pichia pastoris, purified (nickel-agarose)

[11] = target: T8, arrestin-1 S210C (C63A/C143A), mBBr-labeled (bovine, UniProt P08168 2-404, C63A | C143A | S210C, monobromobimane (mBBr) on the introduced cysteine 210); experiment: as above; details: both partners purified
T8 construct: arrestin-1, bovine; source: Pichia pastoris, purified (nickel-agarose)

[12] = target: B1; experiment: as above; details: both partners purified
[13] = target: T9, arrestin-1 K267C (C63A/C143A), mBBr-labeled (bovine, UniProt P08168 2-404, C63A | C143A | K267C, monobromobimane (mBBr) on the introduced cysteine 267); experiment: as above; details: both partners purified
T9 construct: arrestin-1, bovine; source: Pichia pastoris, purified (nickel-agarose)

[14] = target: T10, arrestin-1 V281C (C63A/C143A), mBBr-labeled (bovine, UniProt P08168 2-404, C63A | C143A | V281C, monobromobimane (mBBr) on the introduced cysteine 281); experiment: as above; details: both partners purified
T10 construct: arrestin-1, bovine; source: Pichia pastoris, purified (nickel-agarose)

[15] = target: T11, arrestin-1 E302C (C63A/C143A), mBBr-labeled (bovine, UniProt P08168 2-404, C63A | C143A | E302C, monobromobimane (mBBr) on the introduced cysteine 302); experiment: as above; details: both partners purified
T11 construct: arrestin-1, bovine; source: Pichia pastoris, purified (nickel-agarose)

[16] = target: T12, arrestin-1 D362C (C63A/C143A), mBBr-labeled (bovine, UniProt P08168 2-404, C63A | C143A | D362C, monobromobimane (mBBr) on the introduced cysteine 362); experiment: as above; details: both partners purified
T12 construct: arrestin-1, bovine; source: Pichia pastoris, purified (nickel-agarose)

[17] = target: T1, arrestin-1 H10C (C63A/C143A), …; experiment: as above; details: both partners purified

reduction of the pulldown against WT arrestin-1 [1]: 25% | reduction of the pulldown against WT arrestin-1 [2]: 25% | reduction of the pulldown against WT arrestin-1 (arrestin-1 R29E (bovine)): 25%
Molecule: enolase-1 labeled with Alexa Fluor 546 (from UniProt Q9XSJ4 1-434) (enzyme)

Molecule: B1
binding result [3]: binds

Molecule: B2
quench protection at a 20-fold molar excess of enolase-1 [4]: 90% | Pf (quench protection factor) [5]: 0.732 | Pf (quench protection factor) [6]: 0.564 | Pf (quench protection factor) [7]: 0.297 | Pf (quench protection factor) [8]: 0.314 | Pf (quench protection factor) [9]: 0.787 | Pf (quench protection factor) [10]: 0.467 | Pf (quench protection factor) [11]: 0.618 | Pf (quench protection factor) [12]: 1.08 | Pf (quench protection factor) [13]: 0.484 | Pf (quench protection factor) [14]: 0.269 | Pf (quench protection factor) [15]: 0.772 | Pf (quench protection factor) [16]: 1.2 | Pf (quench protection factor) [17]: 0.792
